# Source: patent publication US20110024630A1, “System, Device, and Methods for Real-Time Screening of Live Cells, Biomarkers, and Chemical Signatures” (BATTELLE MEMORIAL INSTITUTE, priority 2009, published 2011)
# System: JB6 carcinogenesis mouse endothelial model cells
# Assay: Real-time ATR-FTIR monitoring of confluent cells treated with tumor promoter (bFGF)
# Format: cell-based
# Conditions: 72-hour time point, bFGF added at 48 hours
# Experimental: Spent media was replaced with fresh media at 24-hour intervals. Cells were confluent at 24 hours and had attached to the ATR substrate. […] The 1604 cm^−1 band also contains a broad water band which is observed at the 6.5 hour time point where there is greater media contact with the ATR substrate due to a non-confluent cell monolayer. […] Tyrosine aromatic rings absorb in the 1508 cm^−1 region and the symmetric carboxylate stretching vibrations are reflected in the band at 1452 cm^−1. Overall, data reflect the ability to obtain spectra over a period of days which show the attachment of cells to the substrate and a response to perturbation.
# Mouse cells (JB6 carcinogenesis mouse endothelial model cells) (clone 41-5a, ATCC, Manassas, Va., USA) were maintained in a minimal essential medium (MEM+GlutaMAX-I™, CISCO, Grand Island, N.Y.) supplemented with 5% fetal bovine serum (FBS) (Atlanta Biologicais, Norcross, Ga.) that further included: 1% penicillin/streptomycin (GIBCO, Grand Island, N.Y.) and an additional 1%. GlutaMAX-I™ (GIBCO, Grand Island, N.Y.). Cells were maintained at 37° C. and 5% CO2 in an incubator (e.g., a ThermoForma Series II Water Jacketed CO2 incubator. Thermo Fisher Scientific, inc., Waltham, Mass.) equipped with a HEPA filter. The JB6 cells were subcultured at 70-80% confluency following standard protocols. […]
substance,measurement,setting,value
basic fibroblast growth factor [bFGF],cell outcome to which spectral results are attributed,,cell death
same,1696 cm^-1 amide peak,FIG. 7b,increased intensity and has broadened
